Results taken from paper PMC11455619 (Structure (London, England : 1993), 2024).

Molecular target: T1, septin-7 (commercially purified, LSBio) (UniProt Q16181 1-437, labelled with RED-tris-NTA 2nd generation dye (Monolith His-Tag labeling kit))
T1 sequence (looked up): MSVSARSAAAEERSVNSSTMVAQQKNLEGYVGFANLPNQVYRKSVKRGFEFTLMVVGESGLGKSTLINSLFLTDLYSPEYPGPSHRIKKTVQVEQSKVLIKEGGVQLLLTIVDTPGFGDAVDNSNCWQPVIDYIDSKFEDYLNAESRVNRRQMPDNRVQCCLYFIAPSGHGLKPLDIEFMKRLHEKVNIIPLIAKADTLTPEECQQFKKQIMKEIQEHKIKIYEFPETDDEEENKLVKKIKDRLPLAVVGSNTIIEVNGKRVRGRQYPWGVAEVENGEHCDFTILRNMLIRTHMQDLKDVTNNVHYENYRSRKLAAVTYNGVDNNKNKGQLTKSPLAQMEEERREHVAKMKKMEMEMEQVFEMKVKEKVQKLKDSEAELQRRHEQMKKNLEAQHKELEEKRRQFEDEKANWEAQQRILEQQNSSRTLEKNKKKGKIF
Experiment: MST

B1: SOD1 trimer, F20L-H46Q (FH) trimer-stabilising mutant (enzyme)
chain: not shown
B1 gave a Kd of 6.84 µM.
